Laboratory results reported in patent US20230058519A1 (SHANGHAI CELL THERAPY GROUP, published 2023).

Legend:
[1] = target: mesothelin (MSLN) expressed on cells (UniProt Q13421); assay: flow cytometry on 293T-MSLN+ cells; unit taken from the axis 'Conc.(nM)'
[2] = target: T1, BCMA-His antigen (UniProt Q02223 1-54); assay: SPR, BCMA-his coupled on CM5 chip, TCP as analyte, 1:1 fit
T1 construct: also called BMCA antigen
T1 sequence (looked up): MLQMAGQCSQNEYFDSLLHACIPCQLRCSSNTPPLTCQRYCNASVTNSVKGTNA
Description: First the binding affinity of the purified BCMA-TCPs against BMCA antigen was assessed by SPR. BCMA-his antigen was coupled onto a CM5 chip (GE Healthcare Life Sciences), and then a variety of anti-BCMA BsAbs were flowed at the flow rate of 10 uL/min with dissociation time of 900s. Binding kinetics were determined with a 1:1 fit model.

[3] = target: T2, BCMA expressed on cells (UniProt Q02223 1-184, limits assumed); assay: flow cytometry on CHOK1-BCMA+ cells; unit taken from the axis 'Conc.(nM)'
T2 construct: whole, on cells; also called CHOK1-BCMA cell line; BCMA over-expression cell line
T2 sequence (looked up): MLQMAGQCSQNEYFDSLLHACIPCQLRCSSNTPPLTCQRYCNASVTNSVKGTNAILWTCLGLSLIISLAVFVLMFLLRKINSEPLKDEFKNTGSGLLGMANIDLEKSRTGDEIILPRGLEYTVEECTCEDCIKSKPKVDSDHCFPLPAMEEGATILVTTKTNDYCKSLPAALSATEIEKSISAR
Description: The binding bioactivity for mesothelin and BCMA over-expressing cells was evaluated by flow cytometry. Stable cell lines were harvested using 0.25% Trypsin.
About 5E5 cells were collected per sample, and the cells were resuspended in 100 μL/well tested antibodies with His-tag. Then the cells were incubated with anti-His-tag antibody (Genscript, China) and Streptavidin-PE (Biolegend, China). The incubation step of each step was performed at 4° C. in the dark for 1 hr, and then the cells were washed 2× with 200 μL PBS buffer. The washed cells were resuspended in 200 μL PBS buffer and the sample was analyzed by FACS.

[4] = target: mesothelin (MSLN) expressed on cells (UniProt Q13421); assay: flow cytometry on 293T-MSLN-Full cells; unit taken from the axis 'Conc.(nM)'
[5] = target: T3, CD19 expressed on cells (UniProt P15391 20-556, limits assumed); assay: flow cytometry on CHO/K1-CD19 cells; unit taken from the axis 'Conc.(nM)'; the curve is still rising at the last point (MFI about 5000 at about 400 nM)
T3 construct: whole, on cells; also called CD19 over-expression cell line; CD19 over-expressing cells
T3 sequence (looked up): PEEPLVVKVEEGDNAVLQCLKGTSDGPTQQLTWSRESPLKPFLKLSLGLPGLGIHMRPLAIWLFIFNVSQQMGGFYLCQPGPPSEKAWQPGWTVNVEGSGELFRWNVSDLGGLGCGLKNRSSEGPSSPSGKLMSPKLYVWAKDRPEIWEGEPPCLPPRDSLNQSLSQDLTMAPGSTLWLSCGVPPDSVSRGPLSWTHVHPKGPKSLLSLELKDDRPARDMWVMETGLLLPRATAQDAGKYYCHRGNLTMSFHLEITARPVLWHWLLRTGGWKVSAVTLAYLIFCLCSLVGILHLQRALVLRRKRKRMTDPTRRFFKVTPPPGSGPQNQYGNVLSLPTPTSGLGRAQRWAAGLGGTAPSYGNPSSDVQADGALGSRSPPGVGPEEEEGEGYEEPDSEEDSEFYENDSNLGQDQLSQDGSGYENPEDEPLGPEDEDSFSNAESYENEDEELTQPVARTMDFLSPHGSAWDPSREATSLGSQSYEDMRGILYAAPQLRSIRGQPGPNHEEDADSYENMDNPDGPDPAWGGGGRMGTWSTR

[6] = target: mesothelin (MSLN) expressed on cells (UniProt Q13421); assay: flow cytometry on HEK293T-MSLN cells, serial dilution, anti-human IgG PE detection
[7] = target: T4, MSLN-His antigen (UniProt Q13421 296-580, limits assumed); assay: SPR (Biacore), VHH-hFc captured on protein A chip, MSLN-His as analyte
T4 construct: also called MSLN-His protein; MSLN antigen
T4 sequence (Q13421 other isoform, or with tags, fused parts or gaps limits assumed): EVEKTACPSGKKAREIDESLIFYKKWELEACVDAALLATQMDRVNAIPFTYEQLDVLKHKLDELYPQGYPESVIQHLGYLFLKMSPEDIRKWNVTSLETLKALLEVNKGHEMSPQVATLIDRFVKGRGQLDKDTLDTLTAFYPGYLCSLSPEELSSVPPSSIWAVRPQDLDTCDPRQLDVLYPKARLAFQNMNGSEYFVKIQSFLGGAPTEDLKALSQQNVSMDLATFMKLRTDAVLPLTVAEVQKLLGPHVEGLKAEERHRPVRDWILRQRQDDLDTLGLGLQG
Description: The antibody was expressed as a hFc fusion protein, named as M2339(VHH) with the procedure that was described in the patent publication WO2020176815A2 (hereby incorporated by reference in its entirety and for all purposes). The binding affinity of M2339(VHH) towards MSLN antigen was tested by surface plasmon resonance (SPR). First, M2339(VHH) was passed through the sensor chip with protein A immobilized in advance, and the antibody was captured by protein A. Then, five different concentrations of MSLN-His protein were used as the mobile phase, and the binding time and dissociation time were 30 min and 60 min, respectively. Biacore evaluation software 2.0 (GE) was used to analyze the on-rate (kₒₙ), off-rate (koff) and equilibrium constant (KD).

[8] = target: mesothelin (MSLN) expressed on cells (UniProt Q13421); assay: flow cytometry on HEK293T-MSLN cells, serial dilution
[9] = target: T4, MSLN-His antigen; assay: SPR as in Example 2, MSLN His antigen
[10] = target: T5, MSLN II - Fc (UniProt Q13421 391-486, limits assumed); assay: SPR, MSLN domain-Fc captured on protein A chip, M2339 VHH-6his as analyte, 1:1 fit
T5 construct: domain: MSLN II; not shown: human Fc
T5 sequence (Q13421 other isoform, or with tags, fused parts or gaps limits assumed): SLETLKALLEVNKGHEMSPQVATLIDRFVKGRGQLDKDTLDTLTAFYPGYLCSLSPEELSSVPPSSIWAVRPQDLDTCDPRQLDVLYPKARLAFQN
Description: (§1) Affinity was determined by SPR. Protein A chip was used to capture different antigens, various concentrations of M2339(VHH) were injected at a flow rate of 10 μl/min with an association time of 120 to 180 seconds and a dissociation time from 180 to 1200 seconds. Binding kinetics were determined using Biacore Evaluation software in a 1:1 fit model.

[11] = target: T6, MSLN Full - Fc (UniProt Q13421 296-598, limits assumed); assay: as above
T6 construct: domain: MSLN Full (mesothelin ECD); also called mesothelin-full; complete mesothelin polypeptide; not shown: human Fc
T6 sequence (Q13421 other isoform, or with tags, fused parts or gaps limits assumed): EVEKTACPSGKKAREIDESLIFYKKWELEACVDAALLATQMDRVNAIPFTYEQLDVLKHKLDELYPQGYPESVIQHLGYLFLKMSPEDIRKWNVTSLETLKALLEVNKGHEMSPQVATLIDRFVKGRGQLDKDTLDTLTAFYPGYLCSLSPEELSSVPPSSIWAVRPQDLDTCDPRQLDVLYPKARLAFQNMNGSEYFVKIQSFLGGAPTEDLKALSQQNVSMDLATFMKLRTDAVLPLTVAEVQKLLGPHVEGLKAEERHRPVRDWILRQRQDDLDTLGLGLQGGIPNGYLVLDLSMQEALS
Description: as §1

[12] = target: T7, MSLN I - Fc (UniProt Q13421 296-390, limits assumed); assay: as above
T7 construct: domain: MSLN I; also called mesothelinI; not shown: human Fc
T7 sequence (Q13421 296-390 limits assumed): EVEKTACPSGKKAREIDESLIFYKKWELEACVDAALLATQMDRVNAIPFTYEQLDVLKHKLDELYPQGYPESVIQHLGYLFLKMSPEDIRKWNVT
Description: as §1

[13] = target: T8, MSLN II + III - Fc (Homo sapiens (Human), UniProt Q13421 391-598); assay: as above
T8 construct: also called mesothelinII+III; mesothelinII+III domain; not shown: human Fc
T8 sequence (Q13421 other isoform, or with tags, fused parts or gaps limits assumed): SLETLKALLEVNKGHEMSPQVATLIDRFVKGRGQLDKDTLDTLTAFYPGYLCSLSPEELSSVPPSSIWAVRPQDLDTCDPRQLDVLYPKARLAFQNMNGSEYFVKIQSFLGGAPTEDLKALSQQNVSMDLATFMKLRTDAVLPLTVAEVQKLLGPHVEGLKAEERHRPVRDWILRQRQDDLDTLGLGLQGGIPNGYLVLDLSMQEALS
Description: as §1

[14] = target: T9, MSLN III - Fc (UniProt Q13421 487-598, limits assumed); assay: as above
T9 construct: domain: MSLN III; not shown: human Fc
T9 sequence (Q13421 495-606 limits assumed): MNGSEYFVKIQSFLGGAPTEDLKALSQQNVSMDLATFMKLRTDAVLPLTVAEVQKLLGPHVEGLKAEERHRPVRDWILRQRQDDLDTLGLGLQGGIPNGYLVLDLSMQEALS
Description: as §1

[15] = target: T10, MSLN I + II - Fc (UniProt Q13421 296-486, limits assumed); assay: as above
T10 construct: domain: MSLN I + II; not shown: human Fc
T10 sequence (Q13421 other isoform, or with tags, fused parts or gaps limits assumed): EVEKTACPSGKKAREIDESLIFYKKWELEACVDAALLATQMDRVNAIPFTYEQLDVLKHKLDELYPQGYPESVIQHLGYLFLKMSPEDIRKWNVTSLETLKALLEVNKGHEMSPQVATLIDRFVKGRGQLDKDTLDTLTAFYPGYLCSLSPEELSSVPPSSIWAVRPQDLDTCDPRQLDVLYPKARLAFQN
Description: as §1

B1: TCP003-C (bispecific antibody)
chain: QLQLGASGGGLVQPGGSLRLSCALSGFTLRELDEFAIGWFRQAPGKEREGVSCISGTGGITHYADSVKGRFTISRDIAKTTVYLQMNSLNSEDTAVYYCAADERCTDRLIRPPTYWGQGTQVTVSSGGGGSAAAGQPREPQVYTLPPSQEEMTKNQVSLTCLVKGFYPSDIAVEWESNGQPENNYKTTPPVLDSDGSFFLYSRLTVDKSRWQEGNVFSCSVMHEALHNHYTQKSLSLSLGKGGGGSGGGGSGGGGSQVQLVESGGGLVQPGGSLRLSCAASGSITSIYAIGWYRQAPGKLRELVAAITTSGNTFYRDSVKGRFTISRDNAKNTVSLQMNSLKSEDTAVYDCNGAPWGDHAPLVVSWDQGTQVTVSSGGGGSEQKLISEEDLGGGGSHHHHHH
notes: also called TCP0031-C (as misprinted); BCMA-TCP
EC50 [1]: 4.32 nM
Kd [2]: 7.04 nM
koff [2]: 0.000298 s⁻¹
kon [2]: 42300 M⁻¹ s⁻¹
EC50 [3]: 22.3 nM

B2: TCP-MD (VHH)
VHH: QLQLGASGGGLVQPGGSLRLSCALSGFTLRELDEFAIGWFRQAPGKEREGVSCISGTGGITHYADSVKGRFTISRDIAKTTVYLQMNSLNSEDTAVYYCAADERCTDRLIRPPTYWGQGTQVTVSS
EC50 [1]: 10.5 nM

B3: TCP011-P (bispecific antibody)
chain: QLQLGASGGGLVQPGGSLRLSCALSGFTLRELDEFAIGWFRQAPGKEREGVSCISGTGGITHYADSVKGRFTISRDIAKTTVYLQMNSLNSEDTAVYYCAADERCTDRLIRPPTYWGQGTQVTVSSGGGGSGGGGSGGGGSDIQMTQTTSSLSASLGDRVTISCRASQDISKYLNWYQQKPDGTVKLLIYHTSRLHSGVPSRFSGSGSGTDYSLTISNLEQEDIATYFCQQGNTLPYTFGGGTKLEITKAGGGGSGGGGSGGGGSEVKLQESGPGLVAPSQSLSVTCTVSGVSLPDYGVSWIRQPPRKGLEWLGVIWGSETTYYNSALKSRLTIIKDNSKSQVFLKMNSLQTDDTAIYYCAKHYYYGGSYAMDYWGQGTSVTVSSGGGGSEQKLISEEDLGGGGSHHHHHH
notes: also called CD19-TCP; anti-M-ICAP VHH (M2339) - 3xGGGGS linker - anti-CD19 scFv (FMC063) - Myc and HIS
EC50 [4]: 17.1 nM
EC50 [5]: 40.9 nM

B4: M2339(VHH), expressed as a hFc fusion protein (Fc fusion)
chain: QLQLGASGGGLVQPGGSLRLSCALSGFTLRELDEFAIGWFRQAPGKEREGVSCISGTGGITHYADSVKGRFTISRDIAKTTVYLQMNSLNSEDTAVYYCAADERCTDRLIRPPTYWGQGTQVTVSS
notes: VHH fused to human Fc; also called M2339-hFc; M2339-IgG1; not shown: human Fc (hFc)
EC50 (read off the curve) [6]: 4 nM
Kd [7]: 0.264 nM
koff [7]: 1.82e-05 s⁻¹
kon [7]: 69000 M⁻¹ s⁻¹

B5: anti-MSLN-1444 VHH (Fc fusion, not shown: a dimerising Fc or GST)
chain: QVQVVESGGGFVQAGGSLRLSCAASTPIISIAYMGWYRQISEKERQLVATINSGGKTYYADSVKGRFTISRDNAKNTLYLQMNMLKPEDTGMYYCAASNKDYNDYDPDWGQGTQVTVSS
EC50 (read off the curve) [8]: 10 nM
Kd [9]: 2.1 nM
koff [9]: 7.5e-05 s⁻¹
kon [9]: 53700 M⁻¹ s⁻¹

B6: TCP001-C (bispecific antibody)
chain: QLQLGASGGGLVQPGGSLRLSCALSGFTLRELDEFAIGWFRQAPGKEREGVSCISGTGGITHYADSVKGRFTISRDIAKTTVYLQMNSLNSEDTAVYYCAADERCTDRLIRPPTYWGQGTQVTVSSGGGGSGGGGSGGGGSQVQLVESGGGLVQPGGSLRLSCAASGSITSIYAIGWYRQAPGKLRELVAAITTSGNTFYRDSVKGRFTISRDNAKNTVSLQMNSLKSEDTAVYDCNGAPWGDHAPLVVSWDQGTQVTVSSGGGGSEQKLISEEDLGGGGSHHHHHH
notes: also called BCMA-TCP
EC50 [1]: 13.4 nM
Kd [2]: 0.587 nM
koff [2]: 0.000518 s⁻¹
kon [2]: 882000 M⁻¹ s⁻¹
EC50 [3]: 17.6 nM

B7: M2339 VHH-6his (VHH)
VHH: QLQLGASGGGLVQPGGSLRLSCALSGFTLRELDEFAIGWFRQAPGKEREGVSCISGTGGITHYADSVKGRFTISRDIAKTTVYLQMNSLNSEDTAVYYCAADERCTDRLIRPPTYWGQGTQVTVSS
notes: not shown: 6xHis tag
Kd [10]: 0.999 nM
koff [10]: 0.000244 s⁻¹
kon [10]: 244000 M⁻¹ s⁻¹
Kd [11]: 0.0165 nM
koff [11]: 1.36e-05 s⁻¹
kon [11]: 823000 M⁻¹ s⁻¹
Kd [12]: 0.179 nM
koff [12]: 6.49e-05 s⁻¹
kon [12]: 363000 M⁻¹ s⁻¹
Kd [13]: 0.0432 nM
koff [13]: 1.96e-05 s⁻¹
kon [13]: 454000 M⁻¹ s⁻¹
Kd [14]: 0.327 nM
koff [14]: 0.000185 s⁻¹
kon [14]: 566000 M⁻¹ s⁻¹
Kd [15]: 0.366 nM
koff [15]: 0.000174 s⁻¹
kon [15]: 476000 M⁻¹ s⁻¹

B8: TCP-MC (VHH)
VHH: QVQLVESGGGLVQPGGSLRLSCAASGSITSIYAIGWYRQAPGKLRELVAAITTSGNTFYRDSVKGRFTISRDNAKNTVSLQMNSLKSEDTAVYDCNGAPWGDHAPLVVSWDQGTQVTVSS
notes: also called MC001C
Kd [2]: 0.138 nM
koff [2]: 0.000546 s⁻¹
kon [2]: 3.96e+06 M⁻¹ s⁻¹

B9: TCP001-P (bispecific antibody)
chain: QLQLGASGGGLVQPGGSLRLSCALSGFTLRELDEFAIGWFRQAPGKEREGVSCISGTGGITHYADSVKGRFTISRDIAKTTVYLQMNSLNSEDTAVYYCAADERCTDRLIRPPTYWGQGTQVTVSSGGGGSGGGGSGGGGSDIVLTQSPASLAMSLGERATISCRASESVSVIGAHLIHWYQQKPGQPPKLLIYLASNLETGVPARFSGSGSGTDFTLTISRVQAEDAAIYSCLQSRIFPRTFGQGTKLEIKGSTSGSGKPGSGEGSTKGQVQLVQSGSELKKPGESVKISCKASGYTFTDYSINWVKQAPGQGLKWMGWINTETREPAYAYDFRGRFVFSLDTSASTAYLQISSLKAEDTAVYFCALDYSYAMDYWGQGTLVTVSSGGGGSEQKLISEEDLGGGGSHHHHHH
notes: Positive control in TCP format
Kd [2]: 0.0151 nM
koff [2]: 1.25e-05 s⁻¹
kon [2]: 825000 M⁻¹ s⁻¹
